Measurements reported in US20200199241A1 (Chugai, published 2020).

Each binder was assayed against T1, human FcRn (soluble human FcRn complexed with β2-microglobulin) (human, UniProt P61769 21-119, limits assumed) (assay: SPR, pH 7.0;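 further: antibodies captured on a Protein L sensor chip with human FcRn injected as analyte, KD calculated from fitted association and dissociation rate constants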).
T1 construct: also called hFcRn

Kd	Binder
29 nM	IgG1-F282 (antibody, EU numbering; copies: 2 + 2) heavy: QVQLQESGPGLVKPSETLSLTCAVSGHSISHDHAWSWVRQPPGEGLEWIGFISYSGITNYNPSLQGRVTISRDNSKNTLYLQMNSLRAEDTAVYYCARSLARTTAMDYWGEGTLVTVSSASTKGPSVFPLAPSSKSTSGGTAALGCLVKDYFPEPVTVSWNSGALTSGVHTFPAVLQSSGLYSLSSVVTVPSSSLGTQTYICNVNHKPSNTKVDKKVEPKSCDKTHTCPPCPAPELLGGPSVFLFPPKPKDTLYISRTPEVTCVVVDVSHEDPEVKFNWYVDGVEVHNAKTKPREEQYNSTYRVVSVLTPLHQDWLNGKEYKCKVSNKALPAPIEKTISKAKGQPREPQVYTLPPSRDELTKNQVSLTCLVKGFYPSDIAVEWASNGQPENNYKTTPPVLDSDGSFFLYSKLTVDKSRWQQGNVFSCSVLHEALHYHYTQKSLSLSP light: not shown
100 nM	IgG1-F283 (antibody, EU numbering; copies: 2 + 2) heavy: QVQLQESGPGLVKPSETLSLTCAVSGHSISHDHAWSWVRQPPGEGLEWIGFISYSGITNYNPSLQGRVTISRDNSKNTLYLQMNSLRAEDTAVYYCARSLARTTAMDYWGEGTLVTVSSASTKGPSVFPLAPSSKSTSGGTAALGCLVKDYFPEPVTVSWNSGALTSGVHTFPAVLQSSGLYSLSSVVTVPSSSLGTQTYICNVNHKPSNTKVDKKVEPKSCDKTHTCPPCPAPELLGGPSVFLFPPKPKDTLYISRTPEVTCVVVDVSHEDPEVKFNWYVDGVEVHNAKTKPREEQYNSTYRVVSVLTPLHQDWLNGKEYKCKVSNKALPAPIEKTISKAKGQPREPQVYTLPPSRDELTKNQVSLTCLVKGFYPSDIAVEWASNGQPENNYKTTPPVLDSDGSFFLYSKLTVDKSRWQQGNVFSCSVYHEALHYHYTQKSLSLSP light: not shown
100 nM	IgG1-F284 (antibody, EU numbering; copies: 2 + 2) heavy: QVQLQESGPGLVKPSETLSLTCAVSGHSISHDHAWSWVRQPPGEGLEWIGFISYSGITNYNPSLQGRVTISRDNSKNTLYLQMNSLRAEDTAVYYCARSLARTTAMDYWGEGTLVTVSSASTKGPSVFPLAPSSKSTSGGTAALGCLVKDYFPEPVTVSWNSGALTSGVHTFPAVLQSSGLYSLSSVVTVPSSSLGTQTYICNVNHKPSNTKVDKKVEPKSCDKTHTCPPCPAPELLGGPSVFLFPPKPKDTLYISRTPEVTCVVVDVSHEDPEVKFNWYVDGVEVHNAKTKPREEQYNSTYRVVSVLTPLHQDWLNGKEYKCKVSNKALPAPIEKTISKAKGQPREPQVYTLPPSRDELTKNQVSLTCLVKGFYPSDIAVEWESNGQPENNYKTTPPVLDSDGSFFLYSKLTVDKSRWQQGNVFSCSVYHEALHYHYTQKSLSLSP light: not shown
41 nM	IgG1-F280 (antibody, EU numbering; copies: 2 + 2) heavy: QVQLQESGPGLVKPSETLSLTCAVSGHSISHDHAWSWVRQPPGEGLEWIGFISYSGITNYNPSLQGRVTISRDNSKNTLYLQMNSLRAEDTAVYYCARSLARTTAMDYWGEGTLVTVSSASTKGPSVFPLAPSSKSTSGGTAALGCLVKDYFPEPVTVSWNSGALTSGVHTFPAVLQSSGLYSLSSVVTVPSSSLGTQTYICNVNHKPSNTKVDKKVEPKSCDKTHTCPPCPAPELLGGPKVFLFPPKPKDTLYISRTPEVTCVVVDVSHEFPEVKFNWYVDGVEVHNAKTKPREEQYNSTYRVVSVLTPLHQDWLNGKEYKCKVSNKALPAPIEKTISKAKGQPREPQVYTLPPSRDELTKNQVSLTCLVKGFYPSDIAVEWESNGQPENNYKTTPPVLDSDGSFFLYSKLTVDKSRWQQGNVFSCSVMHEALHYHYTQKSLSLSP light: not shown

Continued, binder first:

Binder	Kd
IgG1-F274 (antibody, EU numbering; copies: 2 + 2) heavy: QVQLQESGPGLVKPSETLSLTCAVSGHSISHDHAWSWVRQPPGEGLEWIGFISYSGITNYNPSLQGRVTISRDNSKNTLYLQMNSLRAEDTAVYYCARSLARTTAMDYWGEGTLVTVSSASTKGPSVFPLAPSSKSTSGGTAALGCLVKDYFPEPVTVSWNSGALTSGVHTFPAVLQSSGLYSLSSVVTVPSSSLGTQTYICNVNHKPSNTKVDKKVEPKSCDKTHTCPPCPAPELLGGPSVFLFPPKPKDTLYISRTPEVTCVVVDVSHEDPEVKFNWYVDGVEVHNAKTKPREEQYNSTYRVVSVLTVLHQDWLNGKEYKCKVSNKALPAPIEKTISKAKGQPREPQVYTLPPSRDELTKNQVSLTCLVKGFYPSDIAVAWASNGQPENNYKTTPPVLDSDGSFFLYSKLTVDKSRWQQGNVFSCSVFHEALHYHYTQKSLSLSP light: not shown	760 nM
IgG1-F278 (antibody, EU numbering; copies: 2 + 2) heavy: QVQLQESGPGLVKPSETLSLTCAVSGHSISHDHAWSWVRQPPGEGLEWIGFISYSGITNYNPSLQGRVTISRDNSKNTLYLQMNSLRAEDTAVYYCARSLARTTAMDYWGEGTLVTVSSASTKGPSVFPLAPSSKSTSGGTAALGCLVKDYFPEPVTVSWNSGALTSGVHTFPAVLQSSGLYSLSSVVTVPSSSLGTQTYICNVNHKPSNTKVDKKVEPKSCDKTHTCPPCPAPELLGGPSVFLFPPKPKDTLYISRTPEVTCVVVDVSHEDPEVKFNWYVDGVEVHNAKTKPREEQYNSTYRVVSVLQPLHQDWLNGKEYKCKVSNKALPAPIEKTISKAKGQPREPQVYTLPPSRDELTKNQVSLTCLVKGFYPSDIAVEWASNGQPENNYKTTPPVLDSDGSFFLYSKLTVDKSRWQQGNVFSCSVMHEALHYHYTQKSLSLSP light: not shown	30 nM
IgG1-F279 (antibody, EU numbering; copies: 2 + 2) heavy: QVQLQESGPGLVKPSETLSLTCAVSGHSISHDHAWSWVRQPPGEGLEWIGFISYSGITNYNPSLQGRVTISRDNSKNTLYLQMNSLRAEDTAVYYCARSLARTTAMDYWGEGTLVTVSSASTKGPSVFPLAPSSKSTSGGTAALGCLVKDYFPEPVTVSWNSGALTSGVHTFPAVLQSSGLYSLSSVVTVPSSSLGTQTYICNVNHKPSNTKVDKKVEPKSCDKTHTCPPCPAPELLGGPSVFLFPPKPKDTLYISRTPEVTCVVVDVSHEDPEVKFNWYVDGVEVHNAKTKPREEQYNSTYRVVSVLTPLHHDWLNGKEYKCKVSNKALPAPIEKTISKAKGQPREPQVYTLPPSRDELTKNQVSLTCLVKGFYPSDIAVEWASNGQPENNYKTTPPVLDSDGSFFLYSKLTVDKSRWQQGNVFSCSVMHEALHYHYTQKSLSLSP light: not shown	61 nM
IgG1-F277 (antibody, EU numbering; copies: 2 + 2) heavy: QVQLQESGPGLVKPSETLSLTCAVSGHSISHDHAWSWVRQPPGEGLEWIGFISYSGITNYNPSLQGRVTISRDNSKNTLYLQMNSLRAEDTAVYYCARSLARTTAMDYWGEGTLVTVSSASTKGPSVFPLAPSSKSTSGGTAALGCLVKDYFPEPVTVSWNSGALTSGVHTFPAVLQSSGLYSLSSVVTVPSSSLGTQTYICNVNHKPSNTKVDKKVEPKSCDKTHTCPPCPAPELLGGPKVFLFPPKPKDTLYISRTPEVTCVVVDVSHEDPEVKFNWYVDGVEVHNAKTKPREEQYNSTYRVVSVLTPLHQDWLNGKEYKCKVSNKALPAPIEKTISKAKGQPREPQVYTLPPSRDELTKNQVSLTCLVKGFYPSDIAVEWESNGQPENNYKTTPPVLDSDGSFFLYSKLTVDKSRWQQGNVFSCSVYHEALHYHYTQKSLSLSP light: not shown	130 nM
IgG1-F275 (antibody, EU numbering; copies: 2 + 2) heavy: QVQLQESGPGLVKPSETLSLTCAVSGHSISHDHAWSWVRQPPGEGLEWIGFISYSGITNYNPSLQGRVTISRDNSKNTLYLQMNSLRAEDTAVYYCARSLARTTAMDYWGEGTLVTVSSASTKGPSVFPLAPSSKSTSGGTAALGCLVKDYFPEPVTVSWNSGALTSGVHTFPAVLQSSGLYSLSSVVTVPSSSLGTQTYICNVNHKPSNTKVDKKVEPKSCDKTHTCPPCPAPELLGGPKVFLFPPKPKDTLYISRTPEVTCVVVDVSHEDPEVKFNWYVDGVEVHNAKTKPREEQYNSTYRVVSVLTPLHQDWLNGKEYKCKVSNKALPAPIEKTISKAKGQPREPQVYTLPPSRDELTKNQVSLTCLVKGFYPSDIAVEWASNGQPENNYKTTPPVLDSDGSFFLYSKLTVDKSRWQQGNVFSCSVMHEALHYHYTQKSLSLSP light: not shown	42 nM
